Some targets named below: HLA-A*31:01; HLA-A*33:01; HLA-A*68:01; HLA-A*03:01; HLA-A*11:01.
Holding throughout (assay): IEDB peptide-MHC binding, purified MHC/competitive/radioactivity; filed as Kd, often an IC50 or EC50 that approximates it; ≥ and ≤ were set here for values at or beyond the usual limits of such assays
Setting [1] is: source organism: Vaccinia virus WR.
[2] abbreviates: source organism: SARS coronavirus Tor2.
Where [3] appears, read: source organism: Lassa virus Josiah.
[4] abbreviates: source organism: Dengue virus 4 Philippines/H241/1956.
Where [5] appears, read: source organism: Dengue virus 2 Jamaica/1409/1983.
Setting [6] is: source organism: Dengue virus 3 Sri Lanka/1266/2000.
Setting [7] is: source organism: Dengue virus 3 Martinique/1243/1999.
Setting [8] is: source organism: Mammarenavirus juninense.

As a reminder, the Kd is a measure of binding affinity in units of concentration.

AAISKLGINY: the Kd with HLA-A*31:01 (setting [1]) is 1400 nM; in the experiment with HLA-A*33:01 (setting [1]) it was 1210 nM; with HLA-A*68:01 (setting [1]), 279 nM; in the experiment with HLA-A*03:01 (setting [1]), 320 nM; with HLA-A*11:01 (setting [1]), 357 nM.

For the sequence AFDAPTLYVK, the Kd with HLA-A*31:01 (setting [1]) is 3840 nM; in the experiment with HLA-A*33:01 (setting [1]), ≥ 56000 nM; with HLA-A*68:01 (setting [1]), 134 nM; with HLA-A*03:01 (setting [1]), 2280 nM; with HLA-A*11:01 (setting [1]), 271 nM.

For the sequence AIMQVFFGY, the Kd with HLA-A*31:01 (setting [2]) stood at 452 nM; in the experiment with HLA-A*33:01 (setting [2]), 1400 nM; in the experiment with HLA-A*68:01 (setting [2]), 191 nM; in the experiment with HLA-A*03:01 (setting [2]) it was 0.695 nM; with HLA-A*11:01 (setting [2]), 1.39 nM.

In the case of AITDNGPMPY, the Kd with HLA-A*31:01 (setting [1]) is ≥ 60000 nM; in the experiment with HLA-A*33:01 (setting [1]), ≥ 49600 nM; with HLA-A*68:01 (setting [1]), ≥ 23500 nM; with HLA-A*03:01 (setting [1]), 251 nM; in the experiment with HLA-A*11:01 (setting [1]), 340 nM.

As to ALMSIISTFH, the results for the Kd with HLA-A*33:01 (setting [3]) and with HLA-A*03:01 (setting [3]) were 3610 nM and 617 nM, respectively.

With ASGQRCHFIK, the Kd with HLA-A*31:01 (setting [1]) was 1470 nM; in the experiment with HLA-A*33:01 (setting [1]), ≥ 63300 nM; with HLA-A*68:01 (setting [1]), 5130 nM; with HLA-A*03:01 (setting [1]), 927 nM; with HLA-A*11:01 (setting [1]) it was 12.5 nM.

As to ASNAPSAAK, the dissociation constant Kd with HLA-A*11:01 (source organism: Homo sapiens) came out at 14 nM.

Take ATFIDVHIPK: the Kd with HLA-A*31:01 (setting [1]) turned out to be 915 nM; with HLA-A*33:01 (setting [1]) it was 43.4 nM; with HLA-A*68:01 (setting [1]), 3.44 nM; in the experiment with HLA-A*03:01 (setting [1]), 9.21 nM; with HLA-A*11:01 (setting [1]) it was 0.269 nM.

Take AVMDIISRK: the Kd with HLA-A*03:01 (setting [4]) was 4.94 nM; in the experiment with HLA-A*11:01 (setting [4]) it was 107 nM.

Consider CVTQVLMMR, for which the Kd in the experiment with HLA-A*33:01 (setting [5]) stood at 350 nM; with HLA-A*68:01 (setting [5]) it was 100 nM.

Turning to DIISRRDQR, the dissociation constant Kd turned out to be 105 nM in the experiment with HLA-A*33:01 (setting [5]) and 36.1 nM with HLA-A*68:01 (setting [5]).

As to DMMLMIGNY, the Kd with HLA-A*31:01 (setting [1]) was 11000 nM; with HLA-A*33:01 (setting [1]) it was 3820 nM; with HLA-A*68:01 (setting [1]), 780 nM; with HLA-A*03:01 (setting [1]) it was ≥ 47700 nM; with HLA-A*11:01 (setting [1]), 12700 nM.

For the sequence DMSHLKVALY, the Kd in the experiment with HLA-A*31:01 (setting [1]) stood at 768 nM; with HLA-A*33:01 (setting [1]) it was 14700 nM; with HLA-A*68:01 (setting [1]) it was 854 nM; in the experiment with HLA-A*03:01 (setting [1]) it was 1810 nM; in the experiment with HLA-A*11:01 (setting [1]), 3950 nM.

With DTDIFSPENK, the Kd in the experiment with HLA-A*31:01 (setting [1]) was ≥ 22500 nM; with HLA-A*33:01 (setting [1]), 16800 nM; with HLA-A*68:01 (setting [1]), 42.2 nM; with HLA-A*03:01 (setting [1]) it was 5880 nM; with HLA-A*11:01 (setting [1]), 1680 nM.

In the case of DYMPSMKRFR, the Kd amounted to 43.5 nM with HLA-A*31:01 (setting [5]) and 1.97 nM with HLA-A*33:01 (setting [5]).

For EIINFTISMR, the Kd worked out at 428 nM with HLA-A*31:01 (setting [1]); 7.83 nM in the experiment with HLA-A*33:01 (setting [1]); 1.12 nM with HLA-A*68:01 (setting [1]); 1610 nM with HLA-A*03:01 (setting [1]); 2020 nM with HLA-A*11:01 (setting [1]).

As to EINKNPKYK, the Kd with HLA-A*03:01 (source organism: Homo sapiens) was found to be 753 nM.

For ETTHHAVSR, the Kd with HLA-A*33:01 (setting [6]) was 4.66 nM; with HLA-A*68:01 (setting [6]), 19 nM.

On to ETVKMGAFMY, for which the dissociation constant Kd with HLA-A*31:01 (setting [1]) was ≥ 31500 nM; with HLA-A*33:01 (setting [1]), ≥ 70000 nM; with HLA-A*68:01 (setting [1]), 61.6 nM; in the experiment with HLA-A*03:01 (setting [1]), ≥ 70100 nM; in the experiment with HLA-A*11:01 (setting [1]) it was 1570 nM.

For the sequence EVMRGKFGK, the Kd with HLA-A*68:01 (setting [7]) was 55.7 nM; with HLA-A*11:01 (setting [7]), 850 nM.

Turning to FFLIVLLIPE, the dissociation constant (Kd) with HLA-A*33:01 (setting [5]) amounted to 327 nM.

In the case of FIFSALDEK, the Kd is ≥ 49200 nM with HLA-A*31:01 (setting [1]); ≥ 66800 nM with HLA-A*33:01 (setting [1]); 24.5 nM with HLA-A*68:01 (setting [1]); 156 nM in the experiment with HLA-A*03:01 (setting [1]); 65.1 nM in the experiment with HLA-A*11:01 (setting [1]).

With FIRRKYLIY, the Kd is ≥ 77900 nM with HLA-A*31:01 (setting [1]); ≥ 52400 nM with HLA-A*33:01 (setting [1]); ≥ 53500 nM with HLA-A*68:01 (setting [1]); 1500 nM with HLA-A*03:01 (setting [1]); ≥ 26900 nM with HLA-A*11:01 (setting [1]).

With GIALGLMALK, the Kd with HLA-A*03:01 (setting [7]) stood at 219 nM.

With GKQYIHCFRK, the Kd was 3670 nM in the experiment with HLA-A*31:01 (setting [8]); ≥ 29500 nM with HLA-A*33:01 (setting [8]); 1730 nM with HLA-A*68:01 (setting [8]); 2210 nM with HLA-A*03:01 (setting [8]); 1510 nM with HLA-A*11:01 (setting [8]).

As to GSCVYNMMGK, the Kd was found to be 104 nM with HLA-A*03:01 (setting [7]) and 25.8 nM with HLA-A*11:01 (setting [7]).

Take GSQLAKRFSK: the Kd with HLA-A*11:01 (source organism: Dengue virus 1 Brazil/97-11/1997) is 108 nM.

GTSWFITQR: the Kd in the experiment with HLA-A*31:01 (setting [2]) was determined as 8.28 nM; with HLA-A*33:01 (setting [2]), 1240 nM; with HLA-A*68:01 (setting [2]) it was 13 nM; with HLA-A*03:01 (setting [2]), 318 nM; with HLA-A*11:01 (setting [2]) it was 6.53 nM.

For HMFAGHLKCK, the Kd with HLA-A*03:01 (setting [4]) was found to be 7.4 nM.

For HQNSKKTTK, the equilibrium dissociation constant (Kd) with HLA-A*31:01 (setting [2]) is 1980 nM; with HLA-A*33:01 (setting [2]), ≥ 77700 nM; with HLA-A*68:01 (setting [2]), ≥ 77700 nM; in the experiment with HLA-A*03:01 (setting [2]), 1100 nM; with HLA-A*11:01 (setting [2]) it was 2080 nM.

As for HTTAFFNTCK, the Kd with HLA-A*31:01 (setting [1]) came to 113 nM; in the experiment with HLA-A*33:01 (setting [1]), 14000 nM; with HLA-A*68:01 (setting [1]), 2.13 nM; in the experiment with HLA-A*03:01 (setting [1]), 183 nM; with HLA-A*11:01 (setting [1]) it was 1.46 nM.

These data come from the Immune Epitope Database (IEDB).
